According to the nanobody polyreactivity screen of Harvey et al. (2022):

Assay: yeast display, Sf9 membrane polyspecificity reagent, FACS + sequencing; frameworks hold sequencing errors
In short: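 Polyreactivity labels are assigned by the sorting gate from which each nanobody was recovered. The gates were low and high (top ~1%), set on anti-HA fluorescence for expression and streptavidin fluorescence for reagent binding. Before sorting, galactose-induced (36–48 hours) yeast display cells were stained for 1 hour at 4 °C with 10% biotinylated, detergent-solubilized Sf9 membrane reagent.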

Row | Sequence | polyreactivity (PSR sort gate)
1 | QVQLVESGGGLVQAGGSLRLSCAASGRTFTWNVMGWYRQAPGKERELVAAITTDDRTYADSVKGRFTISRDNAKNTVYLQMNSLKPEDTAVYYCATVVAWSSRPVGEDYWGQGTQVTVSS | low polyreactivity
2 | QVQLVESGGGLVQAGGSLRLSCAASGLIFFFYAMGWYRQAPGKERELVASISGGGITYYADSVKGRFTISRDNAKNTVYLQMNSLKPEDTAVIKNDYWGQGTQVTVSS | low polyreactivity
3 | QVQLVESGGGLVQAGGSLSLSCAASGITFSGNAMGWYRQAPGKERELVAAITWRGDNTYYADSVKGRFTISRDNAKNTVYLQMNSLKPEDTAVYYCAAKSPLFGLTSYPGPDDSWGQGTQVTVSS | low polyreactivity
4 | QVQLVESGGGLVQAGGSLRLSCAASGFTFYYNAMGCYRQAPGKERELVAIRFRGGNTYYADSVKGRFTISRDNAKNTVYLQMNSLKPEDTAVYYCNADDRGSTYVDFDYWGQGTQVTVSS | low polyreactivity
5 | QVQLVESGGGLVQAGGSLRLSFAASGITFYYYTMGWYRQAPGKERELVAGITRGGRTYYADSVKGRFTISRDNSKNSVYLQMNSLKPEDTAVYYFNADPWWRFDYWGQGTQVTVSS | low polyreactivity
6 | QVQLVETGGGLVQAGGSLRLSCAASGSTFQPYAMGWYRQAPGKERELVAAIRSIAGSTYYADSVKGRFTISRDNAKITVYLQMNILKPDDTAVYYCAADWWRVEMDYWGQGTQVTVSS | low polyreactivity
7 | QVQLVESGGGLVQAGGSLRLSCAASGRTFRLYAMGWYRQAPGKERALVAAITGVGSTNYADSVKGRFTISRDNAKNTVYLQMNSLKPEDTAVYYCAAYYWSQVLIQGYYSWGQGTQVTVSS | high polyreactivity
8 | QVQLVESGGGLVQAGGSLRLSCAASGFIFHQNAMGWYRQAPGKERELVAAITRSGTSTYYADSVKGRFTISRDYAKISVYLQMNSLKPVDTAVFYCANDPVRVGRFGYEYWGKGTQVTVSS | low polyreactivity
9 | QVQLVESGGGLVQAGGSLRLSCAASGITFEDYAMGWYRQAPGKERELVAAISWSGDITYYADSVKGRFTISRDNAKNTVYLQMNSLKPEDTAVYYCAADLSPYGYDYWGQGTQVTVSS | low polyreactivity
10 | QVQLVESGGGLVQAGGSLRLSCAASGRIFAGYVMGWYRQAPGKERELVAAISGSGASTYYADSVKGRFTISRDNAKNTVYLQMNSLKPEDTAVYYCAADKPGIFSRFDYWGQGTQVTVSS | low polyreactivity
11 | QGQLVESGGGLVQAGGSLRLSCAASGGTFLWNAMGWYRQAPGKERELVAAIRWSGARTYYADSVKGRFTISRDNAKNTVYLQMNSLKPEDTAVYYCASENYWYWPYNGMYYWGQGTQVTVSS | high polyreactivity
12 | QVQLVESGGGLVHAGGSLRLSCAASGSIFYYYAMGWYRPAPGKERELVAAIYNGGSTYYADSVKGRFTISRDNAKNTVYLEMNSLKPEDTAVYYCNAGYSYWYRDLGYDSWGQGTQVTVSS | low polyreactivity
13 | QVQLVESGGGLVQAGGSLRLSCAASGSIFIRYTLGWYRQAPGKERELVAVISRRGGSTYYADSVKGRFTISRDNAKNTVYLQMNSLNPEDTAVYYCNTTSSVRAPGSGVYYVPGFDYWGQGTQVTVSS | high polyreactivity
14 | QVQLVESGGGLVQAGGSLRLSCAASGSIIARYAMGWYRQAPGKERELVAAITWSATSTYYADSVKGRFTISRDNAKNTVYLQMNSLKREDTAVYYCNAGASYFLVISQSRRDYWGQGTQVTVSS | low polyreactivity
15 | HVQVVESGGGLVQAGGSLRLSCAASGRIFLLYTMGWYRQAPGKERELVAAISSDDSTNYADSVKGRFTISRDNAKNTVYIQMNSLKPEDTAVYYCAAGRKSYYRIYSEYVEFDYWGQGTQVTVSS | low polyreactivity
16 | QVQLVESGGGLVQAGGSLRLSCAASGSTLYRYAMGWYRQAPGKERELVAAISSAGSTHYADSVKGRFTISRDNAKNTVYLQMNSLKTEDTAVYYCADKRYLKYGYWGQGTQVTVSS | high polyreactivity
17 | QVQLVESGGGLVQAGGSLRLSCAASGSTFYYNAMGWYRQAPGKERELVARISRSGGSTYADSVKGRFTISRDNAKNTVYLQMNSLIPEDTAVYYCNADAYGTPEFTSYAVRYDYWGQGTQVTVSS | low polyreactivity
18 | QVQLVESGGGLVQAGGSLRLSCAASGRIFQRNAMGWYRQAPGKERELVAAITSTGVRTYYADSVKGRFTISRDNAKNTVFLQMNSLNPEDTAVYYCAVRGERRYYGSKEDYWGQGTQVTVSS | high polyreactivity
19 | QVQLVESGGGLVQAGGSLRLSCAASGSIFFGNAMGWYRQATGKERELVAAITRRGGSTYYADSVKGRFTISRDNAKNTVYLQMNSLKPEDTAVYYCNAVSKRYGYGYWGQGTQVTVSS | high polyreactivity
20 | QVQLVESGGGLVQAGGSLRLSCAASGITFWGYAMGWYRQAPGKERELVAAISKTGGSTYYADSVKGRFTISRDNAKNTVYLQMNSLKPEDTAVYYCNTVTANGDFGYWGQGTQVTVSS | low polyreactivity
21 | QVQLQESGGGLVQARGSLRLSCAASGTISQEDCMGWYRQAPGKVREFVAAIGLGSNTNYADRLKGRFTISRDNAKNTVYLQMNSLKTEDTAVYYCAVSVWQYSDHVYRGQGTQVTVSS | low polyreactivity
22 | QVQLVESGGGLVQAGGSLRLSCAASGIIFWRYAMGWYRQAPGKERELVAGITSRGGSTYYADSVKGRFTISRDNAKNTVYLQMNSLKPEDTAVYYCNADWYGQLWWGVDYWGQGTQVTVSS | high polyreactivity

Row | Sequence | polyreactivity (PSR sort gate)
23 | QVNLVESGGGLVQAGGSLRLRCAASGSIYISYAMGWYRQAPGKERELVATIRSSGGRTHYSDSVKGRFTISRDNAKNTVYLQMNSLKPEDTPVYYCHYGVYQYPQDYDYWGEGTQVTVSS | low polyreactivity
24 | QVQLVESGGGLVQAGGSLRLSCAASGSTIDKYAMGWYRQAPGKERELVAAIRKSGGRTYYADSVKGRFTISRDNAKHTVYLQMYSLKQEDTAVYYCAAVLPNYYSVRYGYWGQGTQVSVSS | high polyreactivity
25 | QVQLVESGGGLVQAGGSLRLSCAASGYTFTIYALGWYRQAPGKEMELVASISIDGSTYYADSVKGRFTISRDNAKNTVYLQMNSLKPEDTAVYYCAADYYYYTPGFDYWGQGTQVTVSS | low polyreactivity
26 | QVQLVESGGGLVQAGGSLRLSCAASGGTFTDYAMGWYRQAPGKERELVAAISSVGSTNYADSVKGRFTISRDNAKNTVYLQMNSLKPEDTAVYYCAVDYGRAVQGDSITYDFNYWGQGTQVTVSS | low polyreactivity
27 | QVQLVESGGGLVQAGGSLRLSCAASGSILGRYAMGWYRQAPGKERELVAAISYRGGSTYYADSVKGRFTISRDNAKNTVYLQMNSLKPEDTAVYYCATRDPAFYRRYDYWGQGTQVTVSS | high polyreactivity
28 | QVQLQESGGLVQAGGSLRLSCAASGSISGRNVMGWYRQAPGQEREFVASITDGSSTNYADSVKGRFTISRDNAKNTVYLQMNSLKPKDTAVYYCAAYAQRAKSFGYWGRGTQVTVSS | low polyreactivity
29 | QVQLVEAGGGLVQAGGSLRLSCAASGFIFSSNAMGWYRQAPGKERELVAGITASGVSTYYADSVKGRFTISRDNAKNTVYLQMNSLKPEDTAVYDCAALGLYYYFYSQYIAWDDYWGQGTQVTVSS | low polyreactivity
30 | QVQLVESGGGLVQAGGSLRLSCAASGSTYGRNAMGWYRQATGKERELVAAINSGGGTYYADSVKGRFTISRDNAKNTVYLQMYSLKPEDTAVYYCAAARRYGKYDYWGQGTQVTVSS | low polyreactivity
31 | QVQLVESGGGLVQAGGSLRLSCAASGFIFYYAMGWYRQAPGKERELVAAISSGSSTYADSVKGRFTISRDNAKNTVYLQMNSLKPEDTAVYYCATRYSSWYSNRDYDYWGQGTQVTVSS | low polyreactivity
32 | QDQLVESGGGLVQAGGSLRLSCAASGRIFAGNARGWYRQAPGKERELVATITRGGSTNYADSVKRPFTISRDNAKNTVYLQMNSLNPEDTAVYYCNADIRRHGGYAHVYWGQGTQVTVSS | low polyreactivity
33 | QVQLVESGGGLVQAGGSLRLSGAASGSIFDIYAMGWYRPAPGKERELVADITISGGSTYYADSVKVRFTISRDNAKNTVYLQMNSLIPEDTAVYYCAADVTVVLGYKYDYWGQGTQVTVSS | low polyreactivity
34 | QVQLVESGGGLVQAGGSLRLSCAASGRIFGAYAMGWSRQAPGKERELVAAISSSGSRTYYADSVKGRFTISRDNAKNTVYLQMNSLKPEDTAVYYCAATRVSALYDYWGQGTQVTVSS | high polyreactivity
35 | QVQLVESGGGLVQAGGSLRLSCAASGITFRSYAMGWYRQAPGKERELVATISGRGGRTYYADSVKGRFTISRDNAKNTVYLQMNSLKPEDTAVYYCAARLHSYGVGVDYWGQGTQVSVSS | high polyreactivity
36 | LVQLQESGGGLVQAGGSLRLSCAASGTISPGGYMGWYRQAPGKERELVASINVGGSTNYADSVKGRFTISRDNAKNTVYLQRNSLKPEDNAVYYCAVWGRNRLQLSYWGQGTQVTVSS | low polyreactivity
37 | QVQLVESGGGLVHAGCSLRLSCAASGSTYVPYAMGWYRQAPGRERELVADISWSGGSTYYADSVKGRFTISRDNGKNTVFLQMNSLKPEDTAVYYCAATRTKGKFDYWGQGTQVTVSS | high polyreactivity
38 | QVQLVESGGGLVQAGGSLRLSCAASGITFVRYAMGWYRQAPGKERELVAAINFSGGNTYYADSVKGRFTISRDNAKNTVYLQMNSLKPEDTAVYYCAAKRQYKRSRMYYWGQGTQVTVSS | high polyreactivity
39 | QVQLVESGGGLVQAGGSLRLSCAASGITFSRYAMGWYRQAPVKERELVAAITWDGGRTYYADSVKGRFTISRANAKNTVYLQMNSRKPEDTADYYCSAGSAWWYYWGQGTQVTVSS | high polyreactivity
40 | QVQLVESGGGLVQAGGSLRLISAASGFIFKIYAMGWHRQAPGKERDLVAAISSGDNTNYADSVKGRFTISRDNAKNTVYLQMNSLKPEDTAVYYCADRAYRWRSFSTMYYWGQGTQVTVSS | high polyreactivity
41 | QVQLVESGGGLVQAGGSLRLSCAASGRIFTHNTMGWYRQAPGKERELVATIDSGGSTNYADSVNGRFTISRDNAKNTVNLQMNSLQPEDTAVYYCAARVRPWRYLMGYWGQGTQVTVSS | low polyreactivity
42 | HVQLVESGGGLVQAGGSLRLSCAASGFTFSGYVMGWYRQAPGKERELVAAISNSGGRTYADSVKGRFTISRDNAKNTVYLQMNSLKPEDTAVYYCAKKPGGFSQASRVDYDYWGQGTQVTVSS | low polyreactivity
43 | QVQLVESGGGLVQAGGSLRLSCAASGFIVKRYARGWYRQAPGKERELVAAITSSGGRTYYADSVKGRFTISRDTAKNTVYLQMNSLKPEDTAVYYCAKGWSTYYTKMNYWGQGTQVTVSS | high polyreactivity
